Assay results: patent publication US20260242839A1, “GLYCOSIDE PRODUCT BIOSYNTHESIS AND RECOVERY” (Manus Bio Inc., priority 2023, published 2026)
Substitutions are numbered along the chain they refer to. In names and notes the source's numbering stands.

B1: P39T: mutation to UGT enzyme of SEQ ID NO: 14 (protein)
chain: MATKNSSGMSLAERFWLTLSRSSLVVGRSCVEFEPETVTLLSTLRGKPITFLGLMPPLHEGRREDGEDATVRWLDAQPAKSVVYVALGSEVPLGVEKVHELALGLELAGTRFLWALRKPTGVSDADLLPAGFEERTRGRGVVATRWVPQMSILAHAAVGAFLTHCGWNSTIEGLMFGHPLIMLPITGDQGPNARLIEAKNAGLQVARNDGDGSFDREGVAAAIRAVAVEEESSKVFQAKAKKLQEIVADMACHERYIDGFIQQLRSYKDDSGYSSSYAAAAGMHVVICPWLAFGHLLPCLDLAQRLASRGHRVSFVSTPRNISRLPPVRPALAPLVAFVALPLPRVEGLPDGAESTNDVPHDRPDMVELHRRAFDGLAAPFSEFLGTACADWVIVDSFHHWAAAAALEHKVPCAMMLLGSAEMIASIADERLEHAETESPAAAGQGRPAAAPTFEVARMKLIR
B2: Y267H: mutation to UGT enzyme of SEQ ID NO: 14 (protein)
chain: B1 chain with T39P, Y267H
B3: G94T: mutation to UGT enzyme of SEQ ID NO: 14 (protein)
chain: B1 chain with T39P, G94T
B4: S123D: mutation to UGT enzyme of SEQ ID NO: 14 (protein)
chain: B1 chain with T39P, S123D
B5: L417M: mutation to UGT enzyme of SEQ ID NO: 14 (protein)
chain: B1 chain with T39P, L417M
B6: Q262E: mutation to UGT enzyme of SEQ ID NO: 14 (protein)
chain: B1 chain with T39P, Q262E
B7: S308Q: mutation to UGT enzyme of SEQ ID NO: 14 (protein)
chain: B1 chain with T39P, S308Q
B8: S151R: mutation to UGT enzyme of SEQ ID NO: 14 (protein)
chain: B1 chain with T39P, S151R
B9: S29T: mutation to UGT enzyme of SEQ ID NO: 14 (protein)
chain: B1 chain with S29T, T39P
B10: V336I_F338L: mutation to UGT enzyme of SEQ ID NO: 14 (protein)
chain: B1 chain with T39P, V336I, F338L
B11: T186M: mutation to UGT enzyme of SEQ ID NO: 14 (protein)
chain: B1 chain with T39P, T186M
B12: E254D: mutation to UGT enzyme of SEQ ID NO: 14 (protein)
chain: B1 chain with T39P, E254D
B13: M250D_A251E_C252V: mutation to UGT enzyme of SEQ ID NO: 14 (protein)
chain: B1 chain with T39P, M250D, A251E, C252V
B14: T3R: mutation to UGT enzyme of SEQ ID NO: 14 (protein)
chain: B1 chain with T3R, T39P
B15: L203I: mutation to UGT enzyme of SEQ ID NO: 14 (protein)
chain: B1 chain with T39P, L203I
B16: T453M: mutation to UGT enzyme of SEQ ID NO: 14 (protein)
chain: B1 chain with T39P, T453M
B17: L58S: mutation to UGT enzyme of SEQ ID NO: 14 (protein)
chain: B1 chain with T39P, L58S
B18: F51W: mutation to UGT enzyme of SEQ ID NO: 14 (protein)
chain: B1 chain with T39P, F51W
B19: A79P: mutation to UGT enzyme of SEQ ID NO: 14 (protein)
chain: B1 chain with T39P, A79P
B20: A238E: mutation to UGT enzyme of SEQ ID NO: 14 (protein)
chain: B1 chain with T39P, A238E
B21: L417F: mutation to UGT enzyme of SEQ ID NO: 14 (protein)
chain: B1 chain with T39P, L417F
B22: V95Q: mutation to UGT enzyme of SEQ ID NO: 14 (protein)
chain: B1 chain with T39P, V95Q
B23: ins_A2_T3_RR: SEQ ID NO: 14 with insertion of Arg-Arg between A2 and T3 (protein)
chain: MARRTKNSSGMSLAERFWLTLSRSSLVVGRSCVEFEPETVPLLSTLRGKPITFLGLMPPLHEGRREDGEDATVRWLDAQPAKSVVYVALGSEVPLGVEKVHELALGLELAGTRFLWALRKPTGVSDADLLPAGFEERTRGRGVVATRWVPQMSILAHAAVGAFLTHCGWNSTIEGLMFGHPLIMLPITGDQGPNARLIEAKNAGLQVARNDGDGSFDREGVAAAIRAVAVEEESSKVFQAKAKKLQEIVADMACHERYIDGFIQQLRSYKDDSGYSSSYAAAAGMHVVICPWLAFGHLLPCLDLAQRLASRGHRVSFVSTPRNISRLPPVRPALAPLVAFVALPLPRVEGLPDGAESTNDVPHDRPDMVELHRRAFDGLAAPFSEFLGTACADWVIVDSFHHWAAAAALEHKVPCAMMLLGSAEMIASIADERLEHAETESPAAAGQGRPAAAPTFEVARMKLIR
B24: ins_A2_T3_R: SEQ ID NO: 14 with insertion of Arg between A2 and T3 (protein)
chain: MARTKNSSGMSLAERFWLTLSRSSLVVGRSCVEFEPETVPLLSTLRGKPITFLGLMPPLHEGRREDGEDATVRWLDAQPAKSVVYVALGSEVPLGVEKVHELALGLELAGTRFLWALRKPTGVSDADLLPAGFEERTRGRGVVATRWVPQMSILAHAAVGAFLTHCGWNSTIEGLMFGHPLIMLPITGDQGPNARLIEAKNAGLQVARNDGDGSFDREGVAAAIRAVAVEEESSKVFQAKAKKLQEIVADMACHERYIDGFIQQLRSYKDDSGYSSSYAAAAGMHVVICPWLAFGHLLPCLDLAQRLASRGHRVSFVSTPRNISRLPPVRPALAPLVAFVALPLPRVEGLPDGAESTNDVPHDRPDMVELHRRAFDGLAAPFSEFLGTACADWVIVDSFHHWAAAAALEHKVPCAMMLLGSAEMIASIADERLEHAETESPAAAGQGRPAAAPTFEVARMKLIR

System: steviol glycoside
Assay: steviol glycoside bioconversion by E. coli expressing individual mutations of UGT SEQ ID NO: 14
Assay type: cell-based
Conditions: fold improvement of % conversion vs parent UGT SEQ ID NO: 14; stevia leaf extract and glucose fed; 37° C., 48 hr
Procedure: Fold improvement is with respect to % steviol glycoside conversion of the parent UGT enzyme of SEQ ID NO: 14. The UGT enzyme of SEQ ID NO: 15 has the following mutations from SEQ ID NO: 14: ins_A2_T3_RR, H59P, A238E, L417F. Stevia leaf extract and glucose were fed to the bioconversion strains. Bioconversion took place at 37° C. for 48 hr. Data were quantified by reverse phase LC DAD to quantify conversion of steviol glycosides.
Fold improvement (FI) is with respect to % steviol glycoside conversion.

Molecule | FI %Stevioside→rebE | FI %rebA→rebD
B1 | 1.31 | 0.98
B2 | 1.8 | 1.6
B3 | 1.6 | 1.4
B4 | 1.7 | 1.5
B5 | 1.02 | 1.02
B6 | 2.0 | 1.7
B7 | 1.6 | 1.6
B8 | 1.6 | 1.5
B9 | 1.05 | 1.00
B10 | 1.5 | 1.4
B11 | 1.5 | 1.4
B12 | 1.7 | 1.5
B13 | 1.5 | 1.4
B14 | 1.9 | 1.6
B15 | 1.6 | 1.5
B16 | 1.7 | 1.5
B17 | 1.5 | 1.4
B18 | 1.7 | 1.4
B19 | 1.4 | 1.3
B20 | 1.9 | 1.6
B21 | 1.34 | 1.24
B22 | 1.8 | 1.6
B23 | 2.4 | 2.0
B24 | 1.9 | 1.6
